# In publication PMC3907796, “The C-Terminal Region of G72 Increases D-Amino Acid Oxidase Activity” (International Journal of Molecular Sciences, 2013):
# No end group written: not given here. *: point of attachment. Biotin = O=C1N[C@H]2[C@H](CS[C@H]2CCCCC(=O)*)N1
# B1: N-terminally biotinylated G72(138-153) peptide (peptide, UniProt P59103 138-153, looked up)
# peptide: Biotin-KDQSCNHKEITSTKAE
# B2: DAO-6H (recombinant D-amino acid oxidase with C-terminal (His)6) (enzyme)
# chain: not shown
# notes: D-amino acid oxidase (DAO), cDNA amplified with DAO-F'-NdeI/DAO-R'-XhoI (the primers of the full-length 1044 bp cDNA, GI:30524341), in pET23a(+); Detected in the pull-down with anti-His-tag; also called recombinant DAO; source: E. coli BL21(DE3)pLysS, purified (HisTrap FF); not shown: His6, C-terminal, kept
# B3: AD-DAO (D-amino acid oxidase N-terminally tagged with the activation domain) (enzyme)
# chain: not shown
# notes: D-amino acid oxidase (DAO), full-length cDNA of 1044 bp, GI:30524341; The AD fusion was detected with anti-HA; source: yeast two-hybrid fusion, S. cerevisiae AH109; not shown: from the vector pGADT7), N-terminal, kept
# B4: N-terminally biotinylated G72(123-153) peptide (peptide, UniProt P59103 123-153, looked up)
# peptide: Biotin-RQPLERMWTCNYNQQKDQSCNHKEITSTKAE
# modifications: cysteine pairing not given here
# Assays:
# [1] = target: B2; experiment: cell-based or functional assay
# [2] = target: B1; experiment: pull-down; 10 μg biotinylated G72 peptide on streptavidin Sepharose beads, 10 μg DAO-6H in phosphate-buffered saline, 4 °C, 3 h, ten washes; DAO detected by Western blotting (anti-His-tag); beads alone as control; conditions: both partners purified
# [3] = target: B4; experiment: as above; conditions: both partners purified
# [4] = target: T1, BD-G72 (full-length G72 N-terminally tagged with the binding domain) (UniProt P59103 1-153); experiment: two-hybrid; β-galactosidase activity of AH109 transformants grown in SD/-2 broth at 30 °C, normalised to yeast with the AD and BD tags alone; conditions: partners not purified
# T1 construct: probably pGBKT7; The BD fusion was detected with anti-c-Myc; also called full-length BD-G72; G72 isoform 1; source: yeast two-hybrid fusion, S. cerevisiae AH109; not shown: from the vector pGBDT7), N-terminal, kept
# T1 sequence (looked up): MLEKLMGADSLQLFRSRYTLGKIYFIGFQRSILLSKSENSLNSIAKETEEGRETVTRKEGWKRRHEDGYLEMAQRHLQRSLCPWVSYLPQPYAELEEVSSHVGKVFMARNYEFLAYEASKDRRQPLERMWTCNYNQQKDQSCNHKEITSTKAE
binder,measurement,setting,value
B1,"initial velocity (V0) of DAO activity (400 nM DAO-6H, 40 mM D-alanine, 25 °C) with 0, 1, 3, 10 μM G72(138-153); V0 at 10 μM, fold of DAO alone in parentheses",[1],2.94 mol hydrogen peroxide produced/min/g DAO
B2,relative amount of DAO pulled down (against beads alone),[2],2.17 fold
same,relative amount of DAO pulled down (against beads alone),[3],1.38 fold
B3,relative interaction strength by β-galactosidase activity (AD tag with BD tag = 1),[4],5.7 fold
B4,"initial velocity (V0) of DAO activity (400 nM DAO-6H, 40 mM D-alanine, 25 °C) with 0, 1, 3, 10 μM G72(123-153); V0 at 10 μM, fold of DAO alone in parentheses",[1],2.71 mol hydrogen peroxide produced/min/g DAO
